Patent publication US20240150484A1

What was measured:
[1] = target: His-tagged biotinylated human FcγRIIIa allotype 158V monomeric ECD (Sino Biological) (human) (UniProt P08637); experiment: BLI, FcγR on SA sensor, steady state
[2] = target: His-tagged biotinylated human FcγRIIa allotype 131H monomeric ECD (Sino Biological) (human) (UniProt P12318); experiment: BLI, FcγR on SA sensor, steady state
[3] = target: His-tagged biotinylated human FcγRIIb monomeric ECD (Sino Biological) (human) (UniProt P31994); experiment: BLI, FcγR on SA sensor, steady state
Sequence of His-tagged biotinylated human FcγRIIb monomeric ECD (Sino Biological) (human) (P31994 43-217): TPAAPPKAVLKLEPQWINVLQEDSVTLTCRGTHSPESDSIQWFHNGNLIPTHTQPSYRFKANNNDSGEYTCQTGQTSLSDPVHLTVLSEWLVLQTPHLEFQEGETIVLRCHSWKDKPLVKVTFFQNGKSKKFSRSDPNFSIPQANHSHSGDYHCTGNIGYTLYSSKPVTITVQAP

[4] = target: His-tagged biotinylated murine FcγRIII monomeric ECD (Sino Biological) (murine) (UniProt P08508); experiment: BLI, FcγR on SA sensor, steady state
Sequence of His-tagged biotinylated murine FcγRIII monomeric ECD (Sino Biological) (murine) (P08508 31-215): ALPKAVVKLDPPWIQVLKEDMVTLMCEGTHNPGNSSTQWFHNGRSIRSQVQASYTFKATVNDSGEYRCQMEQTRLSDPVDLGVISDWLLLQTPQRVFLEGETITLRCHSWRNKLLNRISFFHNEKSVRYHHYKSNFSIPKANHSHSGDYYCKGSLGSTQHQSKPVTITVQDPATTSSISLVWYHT

[5] = target: His-tagged biotinylated murine FcγRIIb monomeric ECD (Sino Biological) (murine) (UniProt P08101); experiment: BLI, FcγR on SA sensor, steady state
Sequence of His-tagged biotinylated murine FcγRIIb monomeric ECD (Sino Biological) (murine) (P08101 30-210): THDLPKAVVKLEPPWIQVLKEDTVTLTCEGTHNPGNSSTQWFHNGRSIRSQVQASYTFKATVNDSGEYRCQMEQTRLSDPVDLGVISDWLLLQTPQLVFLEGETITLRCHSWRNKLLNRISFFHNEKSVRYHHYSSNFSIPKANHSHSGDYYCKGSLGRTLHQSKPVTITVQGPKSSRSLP

[6] = target: His-tagged biotinylated murine FcγRIV monomeric ECD (Sino Biological) (murine); experiment: BLI, FcγR on SA sensor, steady state
Sequence of His-tagged biotinylated murine FcγRIV monomeric ECD (Sino Biological) (murine) (A0A0B4 entry or part of it limits assumed): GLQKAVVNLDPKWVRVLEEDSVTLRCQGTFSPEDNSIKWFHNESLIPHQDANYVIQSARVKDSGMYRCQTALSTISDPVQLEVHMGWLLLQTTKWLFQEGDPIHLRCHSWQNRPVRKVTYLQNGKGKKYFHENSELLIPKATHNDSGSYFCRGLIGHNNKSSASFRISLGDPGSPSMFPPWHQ

[7] = target: His-tagged human FcγRIa monomeric ECD (Sino Biological) (human) (UniProt P12314); experiment: BLI, FcγR on Ni-NTA sensor, 1:1 global fit
Sequence of His-tagged human FcγRIa monomeric ECD (Sino Biological) (human) (P12314 16-292): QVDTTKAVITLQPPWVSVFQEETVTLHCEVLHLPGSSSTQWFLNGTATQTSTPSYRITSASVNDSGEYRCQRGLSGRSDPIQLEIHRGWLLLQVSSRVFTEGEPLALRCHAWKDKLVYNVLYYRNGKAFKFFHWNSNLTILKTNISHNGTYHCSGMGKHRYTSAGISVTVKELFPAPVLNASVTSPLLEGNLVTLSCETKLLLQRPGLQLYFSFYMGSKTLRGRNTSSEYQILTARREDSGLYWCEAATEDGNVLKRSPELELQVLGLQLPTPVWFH

[8] = target: His-tagged murine FcγRI monomeric ECD (Sino Biological) (murine) (UniProt P26151); experiment: BLI, FcγR on Ni-NTA sensor, 1:1 global fit
Sequence of His-tagged murine FcγRI monomeric ECD (Sino Biological) (murine) (P26151 25-297): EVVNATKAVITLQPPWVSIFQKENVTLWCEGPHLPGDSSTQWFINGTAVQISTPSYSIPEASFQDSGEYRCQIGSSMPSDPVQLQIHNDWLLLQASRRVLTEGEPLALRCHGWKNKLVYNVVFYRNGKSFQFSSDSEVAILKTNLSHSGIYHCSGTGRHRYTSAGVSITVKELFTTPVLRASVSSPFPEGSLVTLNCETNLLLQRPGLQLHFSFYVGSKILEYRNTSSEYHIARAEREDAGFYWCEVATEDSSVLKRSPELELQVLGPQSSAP

[9] = target: His-tagged biotinylated murine FcγRIV monomeric ECD (Sino Biological) (murine); experiment: BLI
[10] = target: His-tagged human FcγRIa monomeric ECD (Sino Biological) (human) (UniProt P12314); experiment: BLI, 1:1 global fit; analysis not optimal, <4 fits
[11] = target: His-tagged biotinylated human FcγRIIIa allotype 158V monomeric ECD (Sino Biological) (human) (UniProt P08637); experiment: BLI, steady state; responses did not reach a plateau
[12] = target: His-tagged biotinylated murine FcγRIV monomeric ECD (Sino Biological) (murine); experiment: as above
[13] = target: His-tagged biotinylated human FcγRIIIa allotype 158V monomeric ECD (Sino Biological) (human) (UniProt P08637); experiment: as above; remark: listed apart in the source
[14] = target: His-tagged murine FcγRI monomeric ECD (Sino Biological) (murine) (UniProt P26151); experiment: BLI
[15] = target: His-tagged murine FcγRI monomeric ECD (Sino Biological) (murine) (UniProt P26151); experiment: BLI, 1:1 global fit; analysis not optimal, <4 fits
[16] = target: His-tagged biotinylated cynomolgus FcγRIII monomeric ECD (ACROBiosystems) (cynomolgus (Macaca fascicularis)) (UniProt Q8SPW2); experiment: BLI, FcγR on SA sensor, steady state
Sequence of His-tagged biotinylated cynomolgus FcγRIII monomeric ECD (ACROBiosystems) (cynomolgus (Macaca fascicularis)) (Q8SPW2 17-208): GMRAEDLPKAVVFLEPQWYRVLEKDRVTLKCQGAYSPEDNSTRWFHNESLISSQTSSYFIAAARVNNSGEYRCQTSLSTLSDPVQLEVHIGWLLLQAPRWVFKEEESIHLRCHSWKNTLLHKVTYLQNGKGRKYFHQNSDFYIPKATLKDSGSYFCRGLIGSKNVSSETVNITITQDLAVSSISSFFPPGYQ

[17] = target: His-tagged biotinylated cynomolgus FcγRIIa monomeric ECD (Sino Biological) (cynomolgus (Macaca fascicularis)); experiment: BLI, FcγR on SA sensor, steady state
[18] = target: His-tagged biotinylated cynomolgus FcγRIIb monomeric ECD (Sino Biological) (cynomolgus (Macaca fascicularis)); experiment: BLI, FcγR on SA sensor, steady state
[19] = target: His-tagged cynomolgus FcγRI monomeric ECD (R&D Systems) (cynomolgus (Macaca fascicularis)); experiment: BLI, FcγR on Ni-NTA sensor, 1:1 global fit
[20] = target: FcγRIIIa on natural killer cells in human PBMC (human) (UniProt P08637); experiment: cell-based or functional assay
Sequence of FcγRIIIa on natural killer cells in human PBMC (human) (P08637 17-254): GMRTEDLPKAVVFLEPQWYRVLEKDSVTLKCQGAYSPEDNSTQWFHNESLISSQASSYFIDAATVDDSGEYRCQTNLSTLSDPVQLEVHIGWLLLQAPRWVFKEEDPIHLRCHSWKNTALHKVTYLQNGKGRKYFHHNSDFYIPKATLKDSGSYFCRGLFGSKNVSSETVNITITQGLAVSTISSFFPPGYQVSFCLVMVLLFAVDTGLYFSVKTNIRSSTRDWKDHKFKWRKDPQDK

Sequence of His-tagged biotinylated human FcγRIIIa allotype 158V monomeric ECD (Sino Biological) (human) (P08637 17-208 F176V): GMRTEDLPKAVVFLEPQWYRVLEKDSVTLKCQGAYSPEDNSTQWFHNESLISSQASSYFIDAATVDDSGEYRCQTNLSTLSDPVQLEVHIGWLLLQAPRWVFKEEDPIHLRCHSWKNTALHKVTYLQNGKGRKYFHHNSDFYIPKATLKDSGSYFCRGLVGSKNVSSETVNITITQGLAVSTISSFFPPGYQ
Sequence of His-tagged biotinylated human FcγRIIa allotype 131H monomeric ECD (Sino Biological) (human) (P12318 34-217): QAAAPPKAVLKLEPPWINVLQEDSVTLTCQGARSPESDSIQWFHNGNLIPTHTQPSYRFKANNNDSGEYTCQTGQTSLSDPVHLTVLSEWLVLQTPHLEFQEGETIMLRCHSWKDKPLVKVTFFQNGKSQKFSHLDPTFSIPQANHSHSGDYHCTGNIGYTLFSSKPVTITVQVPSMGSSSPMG

Substance | Kd [1] [nM] | Kd [4] [nM] | Kd [5] [nM] | Kd [6] [nM] | Kd [7] [nM] | Kd [8] [nM] | koff [8] [s⁻¹] | kon [8] [M⁻¹ s⁻¹] | fold reduction of binding affinity vs wild-type IgG2a [14] [fold] | Kd [15] [nM] | koff [15] [s⁻¹] | kon [15] [M⁻¹ s⁻¹] | further results
wild-type murine anti-human CD20 IgG2a antibody | 1950 | 6900 | 6400 | 145 | 1.27 | 3.82 | 0.000619 | 162000 |  |  |  |  | Kd [2]: 1850 nM; Kd [3]: 17000 nM; koff [7]: 0.00039 s⁻¹; kon [7]: 311000 M⁻¹ s⁻¹
murine anti-human CD20 IgG2a-L234A-L235A (antibody) |  |  |  |  |  | 238 | 0.00231 | 9730 |  |  |  |  | fold reduction vs wt IgG2a [9]: 100 fold; Kd [10]: 3610 nM; koff [10]: 0.0163 s⁻¹; kon [10]: 4530 M⁻¹ s⁻¹; Kd [11]: 11700 nM; Kd [12]: 13800 nM; Kd [13]: 13800 nM
murine anti-human CD20 IgG2a-L234A-L235A-P329G (antibody) |  |  |  |  |  |  |  |  | 100 | 364 | 0.002 | 5500 | 
wild-type anti-human CD20 IgG1 antibody (IgG1-CD20) | 565 | 7450 | 2850 | 1040 | 1.84 | 124 |  |  |  |  |  |  | Kd [16]: 415 nM; Kd [17]: 4250 nM; Kd [18]: 3900 nM; Kd [19]: 0.626 nM
murine anti-human CD20 IgG2a-L234F-L235E-G236R (antibody) |  |  |  |  |  |  |  |  | 100 | 430 | 0.00227 | 5300 | 
anti-human CD20 IgG1-L234F-L235E-G236R-K409R (antibody) |  |  |  |  |  |  |  |  |  |  |  |  | reduction of ADCC of Raji cells [20]: 69%
